Measured values reported in US20060058231A1 (Xencor, published 2006).

Tests used:
Test in all cases: fluorescence anisotropy, labeled BMP-7 added to serial dilutions of receptor/Fc fusion (x axis [receptor] uM)
[1] = biological target: T1, BMPRIa receptor/Fc fusion (R&D Systems) (UniProt P36894 24-152)
T1 construct: also called ALK-3; not shown: Fc portion of the fusion
Description: (§1) The binding of selected variants to BMP receptors, antibodies, and inhibitors was characterized using a fluorescence binding assay and the AlphaScreen™ assay. […] Small-scale (25 uL) reactions were performed using 15 uM BMP-7 and dye concentrations ranging from 0.3 uM to 1000 uM. […] The reaction was quenched with Tris pH 8.0 and cleaned up using a PD-10 desalt column; the second fraction was used in the experiments described below. BMP-7 was also labeled with C6-FXS, a FITC-derived fluorophore with a 6-carbon spacer between the fluor and the NHS group. Labeling conditions with various ratios of protein to dye were tested, in 20 mM PO4, 500 mM NaCl, pH 7 solution. After establishing labeling conditions, 500 ug Y65N/S120D was labeled. Excess dye was removed by centrifugation and a PD-10 desalt column.
(§2) The flourescently labeled BMP-7 was added to serial dilutions of receptor/Fc fusions of the BMP-7 receptors ActRIa, BMPRIa, BMPRIb, ActRIIa, ActRIIb, and BMPRII (R&D Systems). Experiments were also performed in which the fluorescently labeled BMP-7 was added to serial dilutions of noggin/Fc or gremlin (R&D Systems). The labeled BMP-7 and receptor or inhibitor was allowed to incubate, and the fluorescence polarization and intensity was measured using a TopCount plate reader.

[2] = biological target: T2, ActRIIb receptor/Fc fusion (R&D Systems) (UniProt Q13705 19-134, limits assumed)
T2 construct: not shown: Fc portion of the bought fusion
T2 sequence (Q13705 19-134 limits assumed): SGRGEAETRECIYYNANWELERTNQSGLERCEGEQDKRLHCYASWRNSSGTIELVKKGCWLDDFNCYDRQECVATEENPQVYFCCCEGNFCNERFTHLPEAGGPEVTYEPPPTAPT
Description: as §1, §2

[3] = biological target: T3, ActRIIa receptor/Fc fusion (R&D Systems) (UniProt P27037 20-134, limits assumed)
T3 construct: not shown: Fc portion of the fusion
T3 sequence (P27037 20-134 limits assumed): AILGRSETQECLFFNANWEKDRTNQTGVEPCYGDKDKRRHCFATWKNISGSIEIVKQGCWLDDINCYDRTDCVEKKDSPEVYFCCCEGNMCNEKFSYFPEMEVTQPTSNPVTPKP
Description: as §1, §2

T1 sequence (P36894 24-152 limits assumed): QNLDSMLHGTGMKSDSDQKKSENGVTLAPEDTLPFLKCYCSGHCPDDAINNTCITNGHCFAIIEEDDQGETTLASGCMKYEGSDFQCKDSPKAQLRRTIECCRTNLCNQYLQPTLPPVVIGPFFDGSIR

B1: FXS labeled BMP7 (ligand)
BMP-7 mature domain: STGGKQRSQNRSKTPKNQEALRMASVAENSSSDQRQACKKHELYVSFRDLGWQDWIIAPEGYAANYCEGECAFPLNSYMNATNHAIVQTLVHFINPETVPKPCCAPTQLNAISVLYFDDDSNVILKKYRNMVVRACGCH
modifications: labeled with C6-FXS (FITC-derived NHS fluorophore); labeled sites not given
notes: the C6-FXS form of the labeled BMP-7 that the list holds jointly as 1.m9; also called BMP-7 variant Y65N/S120D labeled with C6-FXS
For B1, the “EC50 (read off the curve)” value [1] was about 1000 nM, the “EC50 (read off the curve)” value [2] was about 2000 nM and the “EC50 (read off the curve)” value [3] was about 3000 nM.
